Consider 1 sequence from publication PMC9593060.

The series has as its target T1, YycF (Staphylococcus aureus (ATCC29213?)) (UniProt Q9RDT5).
T1 sequence: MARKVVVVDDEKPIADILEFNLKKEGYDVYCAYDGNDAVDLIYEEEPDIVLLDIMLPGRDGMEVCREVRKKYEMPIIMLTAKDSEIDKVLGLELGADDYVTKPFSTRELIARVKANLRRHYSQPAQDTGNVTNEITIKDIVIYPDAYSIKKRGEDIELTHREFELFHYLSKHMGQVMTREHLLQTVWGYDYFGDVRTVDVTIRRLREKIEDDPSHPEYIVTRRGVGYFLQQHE
The experiment in a line: EMSA. The note with it: binding buffer not stated. For orientation: Mobility shift assays separate free from complexed probe on a gel.

Regarding “TGTGAAATATCAATTTGATTGAAAATTAGACAAAAATAAAGAAATGACTTCAACATAATCATCAAAGTCATTTCGTTGAGTTGACTACTGCCAAGATAACATCGTCACGACTAGGACATTGAATTATGTCCCAGACTCATCGACT (double strand) [PcodY (codY promoter region)]”, the binding entry is listed as “binds”.
